Measured values as given in article PMC7732855.

Biological target: heat shock protein 60 (Hsp60), surface-expressed on Caco-2 cells (human (endogenous in Caco-2)) (UniProt P10809)
UniProt P10809, sequence (P10809 27-573): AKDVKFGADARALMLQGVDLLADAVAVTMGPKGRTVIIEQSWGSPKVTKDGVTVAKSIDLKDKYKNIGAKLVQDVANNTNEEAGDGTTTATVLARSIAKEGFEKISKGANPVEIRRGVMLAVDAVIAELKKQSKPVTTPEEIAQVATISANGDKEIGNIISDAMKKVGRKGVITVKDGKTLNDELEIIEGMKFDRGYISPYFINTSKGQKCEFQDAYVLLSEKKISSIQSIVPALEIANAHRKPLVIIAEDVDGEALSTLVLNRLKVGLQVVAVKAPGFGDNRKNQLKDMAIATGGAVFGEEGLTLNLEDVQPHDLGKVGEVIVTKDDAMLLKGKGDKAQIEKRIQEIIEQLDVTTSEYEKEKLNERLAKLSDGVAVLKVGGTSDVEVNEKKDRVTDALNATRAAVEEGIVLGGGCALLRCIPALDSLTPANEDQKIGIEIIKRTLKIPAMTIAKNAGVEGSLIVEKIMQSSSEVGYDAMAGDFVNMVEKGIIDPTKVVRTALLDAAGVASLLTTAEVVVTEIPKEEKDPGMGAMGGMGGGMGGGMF

Molecule: Listeria adhesion protein (LAP) from Listeria monocytogenes F4244, expressed on the surface of Lactobacillus casei (strain LbcLAP^Lm) (natural protein)
- adhesion of the BLP strain (MOE 10, 1 h) to Hsp60^+ Caco-2 cells (Hsp60 overexpressed), relative to LbcWT: 9 fold
- adhesion of the BLP strain (MOE 10, 1 h) to Hsp60^Vec Caco-2 cells (basal Hsp60), relative to LbcWT: 4 fold

B1: Listeria adhesion protein (LAP) from Listeria innocua F4248, expressed on the surface of Lactobacillus casei (strain LbcLAP^Lin) (natural protein)
chain: MAIKENAAQEVLEVQKVIDRLADNGQKALKAFESYNQEQVDNIVHAMALAGLDQHMPLAKLAVEETGRGLYEDKCIKNIFATEYIWNNIKNNKTVGVINEDTQTGVIEIAEPVGVVAGVTPVTNPTSTTLFKAIIAIKTRNPIIFAFHPSAQRCSSEAAKVVYDAAVAAGAPEHCIQWVEKPSLEATKQLMNHDKVALVLATGGAGMVKSAYSTGKPALGVGPGNVPAYIDKTAKIKRSVNDIILSKSFDQGMICASEQAVIVDKEVAKEVKAEMEANKCYFVKGAEFKKLESYVINPEKGTLNPDVVGKSPAWIANQAGFKVPEDTKILVAEIKGVGDKYPLSHEKLSPVLAFIEAANQAEAFDRCEEMLVYGGLGHSAVIHSTDKEVQKAFGIRMKACRIIVNAPSAQGGIGDIYNGFIPSLTLGCGSYGKNSVSQNVSATNLLNVKRIADRRNNMQWFKLPPKIFFEKYSTQYLQKMEGVERVFIVTDPGMVQFKYVDVVIEHLKKRGNDVAYQVFADVEPDPSDVTVYKGAELMKDFKPDTIIALGGGSAMDAAKGMWLFYEHPEASFFGLKQKFLDIRKRTFKYPKLGGKAKFVAIPTTSGTGSEVTPFAVITDKENNIKYPLADYELTPDVAIVDAQYVTTVPAHITADTGMDVLTHAIESYVSVMASDYTRGLSIRAIELVFENLRESVLTGDPDAREKMHNASALAGMAFANAFLGINHSLAHKIGPEFHIPHGRANAILMPHVIRYNALKPKKHALFPRYESFRADEDYARISRIIGFPAATTEEGVKSLVDEIIKLGKDVGIDMSLKGQNVAKKDLDAVVDTLADRAFMDQCTTANPKQPLVSELKEIYLEAYKGV
- adhesion of the BLP strain (MOE 10, 1 h) to Hsp60^+ Caco-2 cells (Hsp60 overexpressed), relative to LbcWT: 9 fold
- adhesion of the BLP strain (MOE 10, 1 h) to Hsp60^Vec Caco-2 cells (basal Hsp60), relative to LbcWT: 4 fold
